± gives the standard error. For some assays here: Variants at the floor of the assay were thinned out.
B1: glmS ribozyme (parent)
chain: AUAAAAGCGCCAGAACUACAGAAAUGUAGUUGACGAGGAGGAGGUUUAUCGAAUUUUCGGCGGAUGCCUCCAAA

Key:
Settings in all cases: with glucosamine-6-phosphate
glucosamine-6-phosphate [1] = variants of: B1; assay: kcat; higher = faster cleavage; RNA array
Summary of the method: (§1)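 The measurements used barcoded ribozyme variants on sequenced MiSeq chips, transcribed in situ by E. coli RNA polymerase and tracked at 37 °C with a hybridised Cy3 probe. Glucosamine-6-phosphate, 40 μM to 10 mM in HEPES/KCl/Mg(OAc)2 buffer, was flowed in while tiles were imaged over ~14 h. Baseline-normalised signals, also normalised to non-cleaving reference variants, gave per-tile medians that were fit to one- or two-exponential decays for kobs. kcat and KM resulted from weighted Michaelis–Menten fits across concentrations.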

glucosamine-6-phosphate [2] = variants of: B1; assay: self-cleavage kobs at 160 uM GlcN6P; higher = faster cleavage; RNA array
Summary of the method: as §1

glucosamine-6-phosphate [3] = variants of: B1; assay: self-cleavage kobs at 640 uM GlcN6P; higher = faster cleavage; RNA array
Summary of the method: as §1

glucosamine-6-phosphate [4] = variants of: B1; assay: self-cleavage kobs at 2500 uM GlcN6P; higher = faster cleavage; RNA array
Summary of the method: as §1

glucosamine-6-phosphate [5] = variants of: B1; assay: self-cleavage kobs at 10000 uM GlcN6P; higher = faster cleavage; RNA array
Summary of the method: as §1

glucosamine-6-phosphate [6] = variants of: B1; assay: KM; higher = weaker cofactor use; RNA array
Summary of the method: as §1

glucosamine-6-phosphate [7] = variants of: B1; assay: self-cleavage kobs at 40 uM GlcN6P; higher = faster cleavage; RNA array
Summary of the method: as §1

| Variant | kcat (glucosamine-6-phosphate [1]) [s⁻¹] | self-cleavage kobs at 160 uM GlcN6P (glucosamine-6-phosphate [2]) [s⁻¹] | self-cleavage kobs at 640 uM GlcN6P (glucosamine-6-phosphate [3]) [s⁻¹] | self-cleavage kobs at 2500 uM GlcN6P (glucosamine-6-phosphate [4]) [s⁻¹] | self-cleavage kobs at 10000 uM GlcN6P (glucosamine-6-phosphate [5]) [s⁻¹] | KM (glucosamine-6-phosphate [6]) [µM] | self-cleavage kobs at 40 uM GlcN6P (glucosamine-6-phosphate [7]) [s⁻¹] |
| --- | --- | --- | --- | --- | --- | --- | --- |
| C70G C71A | 5.66e-05 ± 1.4e-05 | 8.13e-05 ± 1.8e-05 | 7.38e-05 ± 1.2e-05 | 6.86e-05 ± 1.8e-05 | 3.7e-05 ± 9.8e-06 | – | – |
| U30C A64G | 0.000351 ± 3.3e-05 | 4.88e-05 ± 1.1e-05 | 0.000122 ± 1.4e-05 | 0.000267 ± 3e-05 | 0.000293 ± 4.9e-05 | 1100 ± 200 | – |
| G51A G62A | < 1e-05 | – | – | – | – | – | < 1e-05 |
| A48U U65G | 0.000116 ± 1e-05 | – | 3.11e-05 ± 9.7e-06 | 8.19e-05 ± 1e-05 | 9.9e-05 ± 9.7e-06 | 1390 ± 430 | < 1e-05 |
| A14G C58G | 0.00036 ± 0.00013 | 4.95e-05 ± 1.8e-05 | 7.22e-05 ± 2.1e-05 | 0.000115 ± 2.3e-05 | 0.000276 ± 3.5e-05 | – | – |
| G38A C68A | < 1e-05 | – | – | – | < 1e-05 | – | < 1e-05 |
| A6C C67U | 2.53e-05 ± 7.4e-07 | < 1e-05 | – | – | 2.36e-05 ± 7.4e-06 | 660 ± 160 | < 1e-05 |
| U30C C68A | 3.05e-05 ± 8e-06 | – | – | 3.62e-05 ± 1.1e-05 | – | – | – |
| G32C A53G | 0.000158 ± 4.6e-06 | – | 2.67e-05 ± 9.1e-06 | 6.68e-05 ± 8.8e-06 | 0.000119 ± 1.5e-05 | 3340 ± 200 | – |
| G59A G63U | < 1e-05 | – | – | < 1e-05 | – | 294 ± 68 | < 1e-05 |
| G40C C61U | < 1e-05 | < 1e-05 | < 1e-05 | – | – | – | < 1e-05 |
| C50G U54C | 5.48e-05 ± 1.1e-05 | 5.92e-05 ± 2.5e-05 | – | 5.87e-05 ± 1.8e-05 | – | – | – |
| C8A C61U G66A | < 1e-05 | – | < 1e-05 | < 1e-05 | – | – | – |
| A14U G51U | < 1e-05 | – | < 1e-05 | – | < 1e-05 | – | < 1e-05 |
| G29U U56G | 0.00364 ± 0.0012 | 0.000127 ± 1.6e-05 | 0.000648 ± 9.8e-05 | 0.00118 ± 0.0002 | 0.00283 ± 0.00035 | 3840 ± 1700 | 6.41e-05 ± 1.1e-05 |
| C16A A64U | < 1e-05 | < 1e-05 | – | – | – | – | < 1e-05 |
| A15U A39G C71G | 0.000145 ± 6.1e-05 | – | 0.000116 ± 3.5e-05 | 9.89e-05 ± 3.7e-05 | 0.000288 ± 0.0001 | – | – |

Source: the supplement of paper PMC7125110
